Laboratory results as given in patent publication US20110021757A1 (NATIONAL INSTITUTE OF AGROBIOLOGICAL SCIENCES, published 2011).

Target: T1, human transferrin (human, UniProt P02787 20-698)
T1 construct: The assay paragraphs say only 'transferrin (Biogenesis)'; also called transferrin (Biogenesis); antigen
Assay: ELISA, transferrin-coated plate, silk gland extract, anti-mouse Ig-HRP detection
Protocol: Measurement of the activity of a recombinant antibody against an antigen by enzyme-linked immunosorbent assay (ELISA) was carried out by the following procedure. […] This was homogenized using a glass homogenizer and centrifuged at 14,000 rpm for 20 minutes, and then the supernatant was diluted five times (40 mg/ml) and ten times ([…]) in Tris buffer. These samples and the undiluted sample (original concentration: 200 mg/ml) were used as samples for ELISA measurement. Furthermore, similar procedures were used to prepare samples of the Ser1GAL4 strain silkworms for ELISA measurement as a negative control. 100 μl of the samples for ELISA measurement thus prepared were dispensed into a microtiter plate (NUNC) presensitized with 100 μg/well of transferrin (Biogenesis), and the plate was shaken at room temperature for two hours. Next, the ELISA measurement samples were removed from the wells, and the wells were washed three times with 200 μl of PBS-T. Into each well, 100 μl of a solution prepared in advance by diluting a rabbit anti-mouse Ig-HRP-labeled antibody 100-fold with PBS (150 mM NaCl, 10 mM phosphate buffer, pH 7.4) was dispensed, and the plate was shaken at room temperature for six hours. […] After that, the absorbance at 450 nm was measured using a model 550 microplate reader (BioRad).

T1 sequence (P02787 20-698 limits assumed): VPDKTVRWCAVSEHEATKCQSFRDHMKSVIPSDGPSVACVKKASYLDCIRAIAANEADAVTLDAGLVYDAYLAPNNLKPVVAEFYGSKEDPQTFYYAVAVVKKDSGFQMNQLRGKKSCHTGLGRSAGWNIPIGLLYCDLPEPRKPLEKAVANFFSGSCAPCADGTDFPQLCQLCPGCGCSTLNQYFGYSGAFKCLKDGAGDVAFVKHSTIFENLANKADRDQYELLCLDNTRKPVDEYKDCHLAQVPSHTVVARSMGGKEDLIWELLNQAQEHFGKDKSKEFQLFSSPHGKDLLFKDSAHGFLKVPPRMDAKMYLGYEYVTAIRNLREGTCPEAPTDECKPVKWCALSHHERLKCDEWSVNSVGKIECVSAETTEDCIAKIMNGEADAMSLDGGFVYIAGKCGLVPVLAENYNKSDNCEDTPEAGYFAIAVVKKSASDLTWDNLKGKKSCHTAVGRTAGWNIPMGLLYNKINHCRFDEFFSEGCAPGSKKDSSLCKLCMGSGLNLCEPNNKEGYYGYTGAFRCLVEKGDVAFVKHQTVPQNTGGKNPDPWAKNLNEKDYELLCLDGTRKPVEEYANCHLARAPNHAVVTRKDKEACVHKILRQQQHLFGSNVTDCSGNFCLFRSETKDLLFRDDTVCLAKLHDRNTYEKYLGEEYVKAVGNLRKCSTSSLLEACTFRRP

- binding result: binds
B1: scFv antibody from a mouse anti-human transferrin antibody (anti-transferrin scFv antibody) (scFv)
scFv: LEVQLQESGPDLVKPSQSLSLTCTVTGYSITSGYSWHWIRQFPENKLEWLGYIHSSGATNYSPSLKSRFSITRDTSKNQFFLQLNSVTTEDTATYYCARDGYSPPYAMDYWGQGTTVTVSSGGGGSGGGGSGGGGSDIELTQSPSSLAVSVGEKVTMTCKSSQSLLYSTNQKNYLAWYQQKPGQSPKLLIYWASTRESGVPDRFTGSGSGTDFTLTISSVKAEDLSVYYCQQYYSYPPTFGSGTKLEIK
notes: The signal piece is left out here as a secretion signal; Tested as a crude middle silk gland extract of Ser1GAL4/UASFvaTf silkworms, not purified; also called aTf; FvaTf
